Sequences and labels used below:
B1: OsMADS15 aa 92-237 (other)
chain: CHEYRKLKAKIETIQKCHKHLMGEDHESLNLKELQQLEQQLESSLKHIISRKSHLMLESISELQKKERSLQEENKALQKELVERQKNVRGQQQVGQWDQTQVQAQAQAQPQAQTSSSSSSMLRDQQALLPPQNICYPPVMMGERND
notes: prey, AD fusion; also called PN20842; O. sativa MADS box protein MADS15
B2: OsMADS18 aa 82-154 (other)
chain: EPNTEDQENWGDEYGILKSKLDALQKSQRQLLGEQLDTLTTKELQQLEHQLEYSLKHIRSKKNQLLFESISEL
notes: prey, AD fusion; also called PN20912
B3: OsMADS18 aa 57-224 (other)
chain: FSSHSSMEGILERYQRYSFDERAVLEPNTEDQENWGDEYGILKSKLDALQKSQRQLLGEQLDTLTTKELQQLEHQLEYSLKHIRSKKNQLLFESISELQKKEKSLKNQNNVLQKLMETEKEKNNAIINTNREEQNGATPSTSSPTPVTAPDPIPTTNNSQSQPRGSGE
notes: prey, AD fusion; also called PN20912; O. sativa MADS box protein MADS18
B4: OsMADS13 aa 75-263 (other)
chain: ACGSTSGAPLIEVNAQQYYQQESAKLRHQIQMLQNTNKHLVGDNVSNLSLKELKQLESRLEKGIAKIRARKNELLASEINYMAKREIELQNDNMDLRTKIAEEEQQLQQVTVARSAAMELQAAAAAQQQQQNPFAVAAAQLDMKCFFPLNLFEAAAQVQAVAAQRQQIIPTELNLGYHHHLAIPGATAA
notes: prey, AD fusion; also called PN20668; O. sativa MADS box protein MADS13
B5: PN26210 aa 422-646 (other)
chain: IAELTAKAEEQQKLILKLEDDILKGYSSTDRRTSLLNDWDLQEIGSNEVAEGTDPRHAPQDQDQSSMLKVICNQRDRFRTRLRETEEELRRLKEKYEMLVVELEKTKADNVQLYGKIRYVQDYSHEKIVSRGPKKYAEDVESGSSDVETKYKKMYEDDINPFAAFSKKEKDQRYKELGLRDKITLSSGRFLLGNKYARTFIFFYTIGLHLLVFTLLYRMSALSYL
notes: prey, AD fusion; also called O. sativa Putative CCAAT Displacement Protein
B6: PN20815 aa 1-134 (other)
chain: MDKELKERDEKYVELDTKFQRLHKRAKQRIQDIQKEKDDMEARFNEINQKAEQASSLQSAAQQELERARQQASEALRSMDAERQQLRTVNSKLRTNLDEARVALEARNNVLEKLRQSMFEKEQLLEQTQASLQS
notes: prey, AD fusion; also called Hypothetical Protein PN20815 Similar to A. thaliana Myosin Heavy Chain, Fragment
B7: OsPN30854 aa 100-169 (other)
chain: RIDVVNRQLKPLGKTCVKKEKEYKEILEAYNEKNKEKALLVNRLIELVSESERMRMKKLEELNKTVDSLY
notes: prey, AD fusion; also called Novel Protein PN30854, unknown
B8: PN26210 aa 364-613 (other)
chain: VGYNSIEAEDWELATNGEEMSKLEALLLDKNRKMEHELTQLKVKISEKSNLLEEAEKKIAELTAKAEEQQKLILKLEDDILKGYSSTDRRTSLLNDWDLQEIGSNEVAEGTDPRHAPQDQDQSSMLKVICNQRDRFRTRLRETEEELRRLKEKYEMLVVELEKTKADNVQLYGKIRYVQDYSHEKIVSRGPKKYAEDVESGSSDVETKYKKMYEDDINPFAAFSKKEKDQRYKELGLRDKITLSSGRFLL
notes: prey, AD fusion; also called Putative CCAAT Displacement Protein
B9: OsPN23484 aa 90-245 (other)
chain: RLQREKAAAQMEARQFRRYAEGREDREREVQEELASLSDLAASYHSRLQSHGIDPDSFSDDGEEEQHDEEDGEEVEQIDTAALQTDGSSGGDSIGGMQVKAMVDDDEEEQFTPVEKEFEYTVDVRCASSTTKVSGAVVVGEFMGEGNAAAGGLYAR
notes: prey, AD fusion
B10: OsPN29942 aa 1-159 (other)
chain: EHESDEEKNEVDTSNEIKEIVIDDMEPKVFQAGFLFMYRDNLVGDDELSASSSDCSIFDTLAGKLLAAADRYELPRLRLLCESYLCKHISVNSVATTLALADRHHAMELKSVCLKFAAENLSAVIRTDGFDYLKDNCPALQSEILRTVAGCEEECSSGG
notes: prey, AD fusion
B11: OsPN23484 aa 77-233 (other)
chain: AETATSEAMLMIERLQREKAAAQMEARQFRRYAEGREDREREVQEELASLSDLAASYHSRLQSHGIDPDSFSDDGEEEQHDEEDGEEVEQIDTAALQTDGSSGGDSIGGMQVKAMVDDDEEEQFTPVEKEFEYTVDVRCASSTTKVSGAVVVGEFMG
notes: prey, AD fusion
B12: OsPN23484 aa 64-212 (other)
chain: RELQAELDAERASAETATSEAMLMIERLQREKAAAQMEARQFRRYAEGREDREREVQEELASLSDLAASYHSRLQSHGIDPDSFSDDGEEEQHDEEDGEEVEQIDTAALQTDGSSGGDSIGGMQVKAMVDDDEEEQFTPVEKEFEYTVD
notes: prey, AD fusion
B13: OsPN23830 aa 4-207 (other)
chain: LEDFQASVEALPAMLQRNYSLMRELDKSLQGVQTGNEQRCQQEIEDIKHGLESGSITYDPAKLKFSDEAIEEQKHCVRIADEKVALASQTYDLVDAHIQQLDQFMRKLEELRQEKEAATTAAAAAAAAAASVATGTPVAATVTASAGTSTADNTPKGGRSSERGRGGRKKTAKVPTEQPAPAIDLELPVDPNEPTYCLCNQVSY
notes: prey, AD fusion; also called Novel Protein PN23830, Similar to A. thaliana Putative PHD-Finger Protein
B14: OsPN23829 aa 2-226 (other)
chain: ALSVEKTSSGREYKVKDLSQADFGRLEIELAEVEMPGLMACRAEFGPSQPFKGARISGSLHMTIQTAVLIETLTALGAEVRWCSCNIFSTQDHAAAAIARDSAAVFAWKGETLEEYWWCTERCLDWGVGGGPDLIVDDGGDATLLIHEGVKAEEEFEKSGKVPDPESTDNAEFKIVLTIIRDGLKSDPSKYRKMKERLVGVSEETTTGVKRLYQMQETGALLFPA
notes: prey, AD fusion; also called Novel Protein PN23829 Putative S-Adenosyl-L-Homocysteine Hydrolase
B15: OsPN23388 aa 229-331 (other)
chain: LKTAKEKGLQRLVHLSSDLARQVATILENAQTFQENRKIGDVPSVNSNSSGVPSTQGEIDEIHQERQKFVEVAKKNVRDRRARRMQSCEVPIHPITPVKLMES
notes: prey, AD fusion; also called Novel Protein PN23388
B16: OsAAG13633 aa 799-951 (other)
chain: IRSLKFEYDNLKILMSTNDSEKHNLASQVLKLRRALESREDVKQNGVKSDEDNHHATSKRIKHDDGTTGSCNVLPSTNRHNANGDCNGHDRRDAAHDQSVKELEILKERNTALEEELKELHGRYSEISLKFAEVEGERQQLVMTVRALKNSLR
notes: prey, AD fusion; also called PN25701; O. sativa Putative Myosin
B17: OsAAK00972 aa 236-350 (other)
chain: AEGGSKGEGVSSNPQESTANAAPEISAAEKQELQNKMAKLMAMLDEVDRKYKHYYHQMQIVVSSFDMVAGSGAAKPYTAVALQTISKHFRCLKDAINDQINVIRKKLGEEESSSG
notes: prey, AD fusion; also called PN23253; O. sativa Putative Homeodomain Protein OsAAK00972
B18: OsPN23830 aa 1-169 (other)
chain: MGFLEDFQASVEALPAMLQRNYSLMRELDKSLQGVQTGNEQRCQQEIEDIKHGLESGSITYDPAKLKFSDEAIEEQKHCVRIADEKVALASQTYDLVDAHIQQLDQFMRKLEELRQEKEAATTAAAAAAAAAASVATGTPVAATVTASAGTSTADNTPKGGRSSERGRG
notes: prey, AD fusion
B19: OsBAB07943 aa 525-767 (other)
chain: LADSLNKARSLIHPPVKKPSKLGENLTSLAAVVENEHKRLLARKSIIEKRKEDLERQILEKEKEEEKKRLSVLKKSAEDERIRLLNDVKLREQERIRRQLVEKEKIEAEELLQKQIKEIAKRGGKKPVLQGEVTKEAVMELAMNEQFKERQEMEKKLQKTGKQMDYLERAKRQEEAPLIEQAFQKRLEVEKILHEQEQLREIELSKQHHAGDLQEKNRLSRMLEHKNIFQERIVQRREAEFSR
notes: prey, AD fusion; also called PN23832; O. sativa Putative Eukaryotic Translation Initiation Factor 3 Large Subunit
B20: OsPN24092 aa 797-948 (other)
chain: SIKDQVQTYLEEINTLKSSKNEKEEMIERLQSEIRSLKFEYDNLKILMSTNDSEKHNLASQVLKLRRALESREDVKQNGVKSDEDNHHATSKRIKHDDGTTGSRNVLPSTNRHNANGDCNGHDRRDAAHDQSVKELEILKERNTALEEELKE
notes: prey, AD fusion; also called Novel Protein PN24092, Similar to O. sativa Putative Myosin
B21: Os008339 aa 108-226 (other)
chain: ELAETSLRLRQMRGEELHRLNVEQLQELEKSLESGLGSVLKTKSKKILDEIDGLERKRMQLIEENLRLKEQVSRMSRMEEMQPGPDSEIVYEEGQSSESVTNASYPRPPPDNDYSSDTS
notes: prey, AD fusion; also called PN20847
B22: OsBAA81880 aa 120-228 (other)
chain: IDELQQLEKNLEAGLHRVMLTKDQQFMEQISELQRKSSQLAEENMQLRNQVSQISPAEKQVVDTENFVTEGQSSESVMTALHSGSSQSQDNDDGSDVSLKLGLPCGAWK
notes: prey, AD fusion; also called PN20837
B23: OsFDRMADS8 aa 91-233 (other)
chain: KDDTLGLAKKLEALDESRRKILGENLEGCSIEELRGLEMKLEKSLHNIRLKKTELLERQIAKLKEKERTLLKDNENLRGKHRNLEAAALVANHMTTTTAPAAWPRDVPMTSSTAGAADAMDVETDLYIGLPGTERSSNRSETG
notes: prey, AD fusion; also called PN20698

In the first test the target is T1, OsMADS45 aa 50-198 (Oryza sativa, UniProt P0C5B0 50-198).
T1 construct: bait, Gal4 DBD fusion; also called PN20231; O. sativa MADS box protein MADS45
T1 sequence: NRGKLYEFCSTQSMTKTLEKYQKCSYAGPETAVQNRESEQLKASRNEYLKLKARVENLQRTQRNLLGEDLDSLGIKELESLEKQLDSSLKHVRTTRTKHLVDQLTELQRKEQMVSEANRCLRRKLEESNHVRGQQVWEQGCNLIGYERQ
Nature of the test: Y2H; output trait library. The method in brief: (§1)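 A rice prey library, either the input trait or the output trait library, was screened with a bait clone encoding a defined amino-acid fragment of a rice protein. Screening used an automated, high-throughput yeast two-hybrid assay provided by Myriad Genetics Inc. (Salt Lake City, Utah). Retrieved prey clones had their encoding sequences compared by BLAST against databases so the interacting proteins could be identified.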
On to B1, for which the binding result is “binds”. On to B2, for which the binding result is listed as “binds”.

Regarding B3, the binding result is “binds”. B4: the binding result was “binds”.

For the next test, the target named is T2, OsCYCOS2 aa 170-310 (Oryza sativa, UniProt A2YH60 170-310).
T2 construct: bait, Gal4 DBD fusion; also called PN20257
T2 sequence: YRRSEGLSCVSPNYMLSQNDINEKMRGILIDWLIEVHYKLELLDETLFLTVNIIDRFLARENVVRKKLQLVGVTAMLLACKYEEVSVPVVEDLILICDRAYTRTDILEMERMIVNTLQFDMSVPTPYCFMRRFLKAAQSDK
Nature of the test: Y2H; output trait library. In short, it runs like this: as §1
For the molecule B5, the binding result is reported as “binds”. Turning to B6, the binding result is listed as “binds”. Take B7: the binding result is listed as “binds”. For B8, the binding result is “binds”. In the case of B9, the binding result is “binds”. On the same count and under the same terms, the entry for B10 is “binds”; for B11 it is “binds”; for B12 it is “binds”.

A further test addresses T3, OsHOS59 aa 1-100 (Oryza sativa, UniProt Q94LW4 113-212).
T3 construct: bait, Gal4 DBD fusion; also called PN20559; O. sativa Homeobox Protein HOS59, Fragment
T3 sequence: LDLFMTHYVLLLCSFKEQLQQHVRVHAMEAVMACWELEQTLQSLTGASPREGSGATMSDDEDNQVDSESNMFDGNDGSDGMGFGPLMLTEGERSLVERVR
As to the kind of experiment: Y2H; output trait library. In short, it runs like this:
as §1
For B13, the binding result is reported as “binds”. Same read-out and setting: the value for B14 was “binds”; that for B15 was “binds”.

B16: the binding result is reported as “binds”. On to B17, for which the binding result is “binds”. As for B18, the binding result is “binds”. On the same count and under the same terms, the entry for B19 is “binds”. On the same count and under the same terms, the entry for B20 is “binds”.

A further test addresses T4, OsMADS6 aa 50-200 (Oryza sativa, UniProt Q6EU39 50-200).
T4 construct: bait, Gal4 DBD fusion; also called PN20233
T4 sequence: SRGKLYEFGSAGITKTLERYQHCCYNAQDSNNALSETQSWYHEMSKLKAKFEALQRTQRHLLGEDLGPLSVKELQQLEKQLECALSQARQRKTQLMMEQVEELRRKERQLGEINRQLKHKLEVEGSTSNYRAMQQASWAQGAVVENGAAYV
Nature of the test: Y2H; output trait library. In short, it runs like this: as §1
Take B21: the binding result is listed as “binds”. As for B22, the binding result is on record as “binds”.

Consider B23, for which the binding result was “binds”.

The values are drawn from patent US20060253917A1 (published 2006).
